Data published in patent US20090274696A1, “METHODS FOR TREATING INFLAMMATION” (WYETH, priority 2008, published 2009).

What was measured:
BAL cells = test: Counts of BAL cells in intranasally challenged mice; type: in vivo, mouse; settings: intranasal once a day×5 days, 100 nM rFIZZ1 or 0.1 ng/ml LPS; vs PBS-treated mice
Method: For some experiments, ex vivo TSM tensions of fresh tracheal rings and BAL cell counts were measured at 24 hours after the last treatment of mice receiving an intranasal dose of either PBS, 0.1 ng/m: LPS or 100 nM rFIZZ1 (once a day×5 days).
PBS- and OA-treated mice were sacrificed and their airways lavaged once with 1.0 mL of PBS via tracheal cannulation. An equal volume of BAL from each mouse was collected and centrifuged (1200 rpm, 5 min). Total BAL cells were counted using a hemocytometer. BAL cells ([…]) collected from each sample were applied to a glass slide using a cytospin (800 rpm, 8 min) and then the slide was stained with Hema 3 Stain Set (Fisher Scientific) for the differential count of cells. The relative proportion of different cells counted from 300 cells/slide was factored to the number of total BAL cells collected in each group.

[1] = tested on: tracheal smooth muscle (TSM) of mouse tracheal rings; test: CCh-evoked force generation in cultured tracheal rings; type: cell-based; settings: for Maximal tensions (%), CCh-evoked force generation: PBS-treated rings 100±8.39; for TSM sensitivity to CCh, LogEC50: Mean ± SE, N=6
Method: (§1) Experimental animals were sacrificed by CO2 asphyxiation. Tracheas were surgically excised and cleaned of adherent connective tissue. Each trachea was sectioned into rings 3-4 mm in length and cultured in DMEM containing 1.0 M HEPES, 1.0 M NaOH, 5% of heat-inactivated FBS (Hy-Clone, Logan, Utah), 0.2M glutamine, 1.0 M CaCl2, 2.5 μg/ml fungizone, 5 μg/mL insulin, 100 U/mL penicillin and 100 μg/mL streptomycin) (DMEM-5%) for 24 hours. For in vitro experiments, the tracheal rings were cultured in DMEM in the absence and presence of either 10 or 100 nM recombinant FIZZ1 (Leinco Technologies, USA) for 24 hours.
(§2) Trachea were supported longitudinally by a plexiglas rod with a stainless steel pin into the base of a double-jacketed, glass organ bath filled with 10 mL of Krebs-Henseleit (K-H) solution (37° C.) of the following composition: 118 mM NaCl; 4.7 mM KCl; 1.2 mM KH2PO4; 11.1 mM Dextrose; 1.2 mM MgSO4; 2.8 mM CaCl2; and 25 mM NaHCO3. The solution was maintained at a pH of 7.40-7.45 and continuously gassed with a mixture of 5% CO2 and […] for the duration of each experiment. […] Initial tensions of TSM were set at approximately 0.5 g and maintained for 1 hour. Agonists were given after a steady state of tension had been reached.
[CCh]-response curves at the doses ranging from 3×10^−8 to 10^−5 M were completed in tracheal rings in absence and presence of either FIZZ1 or LPS (0.1 ng/mL). Concentrations of agonist were increased only when force responses to the previous concentration had stabilized. To examine TSM relaxant responses to isoprenaline (ISO), tracheal rings were first contracted by an addition of 1.0 μM CCh (Sigma, USA). Once the contraction had stabilized, ISO (Sigma, USA) was introduced into each bath at increasing concentrations (3×10^−8-10^−5 M). […] In an additional experiment, the effect of FIZZ1 protein on the CCh-mediated force response was verified using 100 nM heat-inactivated FIZZ1 (natural and recombinant FIZZ1 solution heated at 70° C. for 60 min). Their dose-response curves were obtained as above. Fresh drug solutions such as CCh and ISO were made up on the day of the experiment. Doses of the above agents refer to the final bath concentration.
(§3) At the end of each force measurement experiment, tracheas were blotted on a gauze pad and weighted. Results were calculated as milligram of tension per milligram of TSM weight (mg/mg) and expressed as an individual percentage (%) of 10 μM CCh- or 200 μM papaverine-induced tension response in PBS-treated trachea. For the control group, CCh (papaverine)-mediated responses were normalized to the mean value of the maximal responses.

[2] = tested on: tracheal smooth muscle (TSM) of mouse tracheal rings; test: ISO-induced relaxation of CCh-contracted tracheal rings; type: cell-based; settings: normalized to 200 μM papaverine, PBS 46.29±2.85, n=6
Method: as §1, §2
[CCh]-response curves at the doses ranging from 3×10^−8 to 10^−5 M were completed in tracheal rings in absence and presence of either FIZZ1 or LPS (0.1 ng/mL). Concentrations of agonist were increased only when force responses to the previous concentration had stabilized. To examine TSM relaxant responses to isoprenaline (ISO), tracheal rings were first contracted by an addition of 1.0 μM CCh (Sigma, USA). Once the contraction had stabilized, ISO (Sigma, USA) was introduced into each bath at increasing concentrations (3×10^−8-10^−5 M). […]
as §3, with “For the control group, CCh (papaverine)-mediated responses were normalized to the mean value of the maximal responses.” left out

[3] = tested on: mouse tracheal epithelium cells (MTEC); test: Nitrite in MTEC supernatants, Griess reaction; type: cell-based; settings: PBS, 0.1 ng/mL LPS or 100 nM rFIZZ1; any measured time point; N=3
Method: MTEC culture was performed by following the protocol of You et al. (“Growth and differentiation of mouse tracheal epithelial cells: selection of a proliferative population,” Am J Physiol Lung Cell Mol Physiol, 2002, 283:L 1315-1321) with minor modification. Briefly, tracheas were incubated in 1.5 mg/mL pronase (Roche Molecular Biochemicals) for 18 h at 4° C. Cells were treated with 0.5 mg/mL crude pancreatic DNase I (Sigma-Aldrich) on ice for 5 min. After incubation in tissue culture plates for 3-4 h in 5% CO2 at 37° C., nonadherent cells were incubated in a plate coated with type I rat tail collagen (BD Biosciences) in modified BEBM (Lonza, Md. USA) containing 10 μg/ml insulin, 5 μg/ml transferrin, 25 ng/ml epidermal growth factor, 5 μg/ml epinephrine and 30 μg/ml bovine pituitary extract, 0.5 nM Hydrocortisone, 25 ng/ml hEGF, 15 nM Triiodothyronine, 0.25 μg/ml Gentamicin/amphotericin-B and 0.01 μM retinoic acid in 5% CO2 at 37° C. […]
Nitric oxide (NO) was examined by measuring an end product, nitrite, using the Griess reaction (Xu et al., “Arginase and autoimmune inflammation in the central nervous system,” Immunology, 2003; 110:141-148). […] Absorbance was read at 540 nm in an automated microplate reader. […]

B1: rFIZZ1: recombinant FIZZ1 (Leinco Technologies), mouse FIZZ1 protein, resistin-like molecule-α (protein, listed as Mus musculus)
chain: MKTTTCSLLICISLLQLMVPVNTDETIEIIVENKVKELLANIPANYPSTVTKTLSCTSVKTMNRWASCPAGMTATGCACGFACGSWEIQSGDTCNCLCLLV
modifications: (1)..(101) Murine FIZZ1 polypeptide
number of BAL cells (BAL cells): increase | Maximal tensions (%), CCh-evoked force generation ([1]; 10 nM rFIZZ1, cultured 24 hours, n=6): 117.21±7.87% | Maximal tensions (%), CCh-evoked force generation ([1]; 100 nM rFIZZ1, cultured 24 hours, n=6): 144.16±15.77% | maximal responses (%) of the tracheal rings, CCh-evoked ([1]; FIG. 4B, 100 nM heat-inactivated or native rFIZZ1, 0.1 ng/mL LPS, PBS 100±4.82, n=6): 135.67±9.02% | TSM sensitivity to CCh, LogEC50 ([1]; trachea treated with FIZZ1 10 nM): −0.96 ± 0.05 μM | TSM sensitivity to CCh, LogEC50 ([1]; trachea treated with FIZZ1 100 nM): −0.99 ± 0.03 μM | maximal relaxing force (%), ISO-induced ([2]; 10 nM rFIZZ1 pretreatment): 46.52±2.80% | maximal relaxing force (%), ISO-induced ([2]; 100 nM rFIZZ1 pretreatment): 43.38±0.75% | changes in nitrite concentration in MTEC supernatants [3]: not obvious
